Laboratory results from IntAct's records for PubMed 11781573.

B1: Erythropoietin receptor (Homo sapiens), P19235 (parent)
chain: MDHLGASLWPQVGSLCLLLAGAAWAPPPNLPDPKFESKAALLAARGPEELLCFTERLEDLVCFWEEAASAGVGPGNYSFSYQLEDEPWKLCRLHQAPTARGAVRFWCSLPTADTSSFVPLELRVTAASGAPRYHRVIHINEVVLLDAPVGLVARLADESGHVVLRWLPPPETPMTSHIRYEVDVSAGNGAGSVQRVEILEGRTECVLSNLRGRTRYTFAVRARMAEPSFGGFWSAWSEPVSLLTPSDLDPLILTLSLILVVILVLLTVLALLSHRRALKQKIWPGIPSPESEFEGLFTTHKGNFQLWLYQNDGCLWWSPCTPFTEDPPASLEVLSERCWGTMQAVEPGTDDEGPLLEPVGSEHAQDTYLVLDKWLLPRNPPSEDLPGPGGSVDIVAMDEGSEASSCSSALASKPSPEGASAASFEYTILDPSSQLLRPWTLCPELPPTPPHLKYLYLVVSDSGISTDYSSGDSQGAQGGLSDGPYSNPYENSLIPAAEPLPPSYVACS
B2: Erythropoietin receptor (Homo sapiens), P19235 (parent)
chain: B1 chain
partner: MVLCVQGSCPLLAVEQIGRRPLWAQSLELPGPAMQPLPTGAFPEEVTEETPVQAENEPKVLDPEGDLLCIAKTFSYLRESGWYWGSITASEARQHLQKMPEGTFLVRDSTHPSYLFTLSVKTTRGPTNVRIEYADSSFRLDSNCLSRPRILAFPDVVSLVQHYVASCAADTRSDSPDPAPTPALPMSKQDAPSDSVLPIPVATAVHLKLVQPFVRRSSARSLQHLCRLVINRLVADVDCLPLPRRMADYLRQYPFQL

Variants of: B1
Conditions: with socs2_human SOCS2, O14508
Chain of socs2_human SOCS2, O14508 (O14508 whole entry): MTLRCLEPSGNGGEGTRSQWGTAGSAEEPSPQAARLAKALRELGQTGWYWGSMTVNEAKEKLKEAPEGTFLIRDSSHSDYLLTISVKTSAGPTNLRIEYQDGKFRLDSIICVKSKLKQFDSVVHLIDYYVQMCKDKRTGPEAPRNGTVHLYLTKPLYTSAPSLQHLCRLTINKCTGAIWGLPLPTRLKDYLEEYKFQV

effect of a mutation on the interaction	Variant
decreasing interaction	MDHLGASLWPQVGSLCLLLAGAAWAPPPNLPDPKFESKAALLAARGPEELLCFTERLEDLVCFWEEAASAGVGPGNYSFSYQLEDEPWKLCRLHQAPTARGAVRFWCSLPTADTSSFVPLELRVTAASGAPRYHRVIHINEVVLLDAPVGLVARLADESGHVVLRWLPPPETPMTSHIRYEVDVSAGNGAGSVQRVEILEGRTECVLSNLRGRTRYTFAVRARMAEPSFGGFWSAWSEPVSLLTPSDLDPLILTLSLILVVILVLLTVLALLSHRRALKQKIWPGIPSPESEFEGLFTTHKGNFQLWLYQNDGCLWWSPCTPFTEDPPASLEVLSERCWGTMQAVEPGTDDEGPLLEPVGSEHAQDTYLVLDKWLLPRNPPSEDLPGPGGSVDIVAMDEGSEASSCSSALASKPSPEGASAASFEFTILDPSSQLLRPWTLCPELPPTPPHLKYLYLVVSDSGISTDYSSGDSQGAQGGLSDGPYSNPYENSLIPAAEPLPPSYVACS [Y426F]

Variants of: B2
Conditions: with cish_mouse Cish

effect of a mutation on the interaction	Variant
decreasing interaction	MDHLGASLWPQVGSLCLLLAGAAWAPPPNLPDPKFESKAALLAARGPEELLCFTERLEDLVCFWEEAASAGVGPGNYSFSYQLEDEPWKLCRLHQAPTARGAVRFWCSLPTADTSSFVPLELRVTAASGAPRYHRVIHINEVVLLDAPVGLVARLADESGHVVLRWLPPPETPMTSHIRYEVDVSAGNGAGSVQRVEILEGRTECVLSNLRGRTRYTFAVRARMAEPSFGGFWSAWSEPVSLLTPSDLDPLILTLSLILVVILVLLTVLALLSHRRALKQKIWPGIPSPESEFEGLFTTHKGNFQLWLYQNDGCLWWSPCTPFTEDPPASLEVLSERCWGTMQAVEPGTDDEGPLLEPVGSEHAQDTYLVLDKWLLPRNPPSEDLPGPGGSVDIVAMDEGSEASSCSSALASKPSPEGASAASFEFTILDPSSQLLRPWTLCPELPPTPPHLKYLYLVVSDSGISTDYSSGDSQGAQGGLSDGPYSNPYENSLIPAAEPLPPSYVACS [Y426F]
